Assay results reported in US20100098706A1 (LFB BIOTECHNOLOGIES, published 2010).

Key:
[1] = molecular target: T1, human LDL (Low Density Lipoprotein) receptor (human, UniProt P01130 22-860); assay: binding to melanoma cell lines; method not described
T1 construct: whole, on cells; no recombinant LDL-R was tested; also called LDL-R; human LDL-R

[2] = molecular target: T2, human CD16 receptor (FcgammaRIIIa) (human, UniProt P08637 17-254); assay: cell-based or functional assay
[3] = molecular target: T2, human CD16 receptor (FcgammaRIIIa); assay: flow cytometry on NK cells; competition with 3G8-PE; antibody at 50 µg/ml; reference Rituxan®
Protocol: The binding to the CD16 receptor is evaluated by a murine anti-CD16 antibody (3G8) competition test.
The effector cells (NK cells) are purified by the negative depletion kit (NK Cell Isolation Kit, Myltenyi, Paris, France), starting with peripheral blood from healthy donors. Then, the NK cells are incubated with variable concentrations (0, 10 and 50 μg/ml) of antibodies to be evaluated and the anti-CD16 antibody (3G8) coupled to a fluorochrome (3G8-PE) at a fixed concentration.
After washing, the binding of the 3G8-PE to the CD16 receptor of the NK cells is evaluated by flow cytometry.

[4] = molecular target: T2, human CD16 receptor (FcgammaRIIIa); assay: cell-based or functional assay; remark: listed apart in the source

T2 sequence (P08637 17-254): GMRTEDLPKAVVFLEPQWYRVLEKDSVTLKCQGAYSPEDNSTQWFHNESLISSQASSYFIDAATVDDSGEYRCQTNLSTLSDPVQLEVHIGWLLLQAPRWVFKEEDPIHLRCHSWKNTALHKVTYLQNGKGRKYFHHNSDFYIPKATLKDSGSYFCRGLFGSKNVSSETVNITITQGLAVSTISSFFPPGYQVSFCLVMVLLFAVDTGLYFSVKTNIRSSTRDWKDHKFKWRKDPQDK
T1 sequence (P01130 22-860): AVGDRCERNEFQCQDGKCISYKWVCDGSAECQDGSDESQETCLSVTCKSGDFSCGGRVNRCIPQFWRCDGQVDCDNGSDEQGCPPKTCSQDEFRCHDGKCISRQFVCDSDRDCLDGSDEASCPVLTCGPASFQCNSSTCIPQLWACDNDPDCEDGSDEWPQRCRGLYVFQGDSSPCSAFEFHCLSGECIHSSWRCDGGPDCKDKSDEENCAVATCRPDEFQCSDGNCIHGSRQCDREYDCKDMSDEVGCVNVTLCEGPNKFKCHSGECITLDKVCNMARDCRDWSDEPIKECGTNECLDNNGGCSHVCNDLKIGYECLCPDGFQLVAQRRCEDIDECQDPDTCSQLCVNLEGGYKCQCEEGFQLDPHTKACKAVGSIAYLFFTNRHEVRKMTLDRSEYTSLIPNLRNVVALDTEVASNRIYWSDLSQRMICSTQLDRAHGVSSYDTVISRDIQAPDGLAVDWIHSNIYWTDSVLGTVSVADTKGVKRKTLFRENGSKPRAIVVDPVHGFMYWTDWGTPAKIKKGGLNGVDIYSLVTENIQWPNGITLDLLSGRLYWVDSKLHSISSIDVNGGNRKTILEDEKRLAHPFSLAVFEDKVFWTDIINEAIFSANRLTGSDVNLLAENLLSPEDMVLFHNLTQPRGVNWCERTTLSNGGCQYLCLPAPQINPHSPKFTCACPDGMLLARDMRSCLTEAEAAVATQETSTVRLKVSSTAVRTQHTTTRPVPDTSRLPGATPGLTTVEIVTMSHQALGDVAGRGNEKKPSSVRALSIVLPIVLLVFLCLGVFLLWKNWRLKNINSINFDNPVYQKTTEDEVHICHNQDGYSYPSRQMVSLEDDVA

- binding result [1]: binds
- ADCC EC50, GUY 17.2 target cells, NK effector cells [2]: 0.45 µg/mL
- fold binding against Rituxan® [3]: ~3 fold
- ADCC EC50, HT-144 target cells, NK effector cells [4]: 0.45 µg/mL
B1: anti-LDL-R chimeric antibody EMAB604 (antibody, human IgG1, kappa)
heavy: not shown
light: DVLMTQTPLSLPVSLGDQASISCRSSQSILHSSGIAYLEWYLQKPGQSPKLLIYKVSNRFSGVPDRFSGSGSGTDFTLKISRVEAEDLGVYYCFQGSHVPWTFGGGTKLEIKRTVAAPSVFIFPPSDEQLKSGTASVVCLLNNFYPREAKVQWKVDNALQSGNSQESVTEQDSKDSTYSLSSTLTLSKADYEKHKVYACEVTHQGLSSPVTKSFNRGEC
notes: The cloned V fragments contain the natural signal peptide of C7; also called anti-LDL-R (EMAB604); chimeric antibody C7
